# Test results: patent US20130225479A1, “Methods and Compositions for Treating Inflammation” (The University of North Carolina at Chapel Hill, priority 2010, published 2013)
# T1: human NLRP1 (full-length) (human, UniProt Q9C000 1-1473, myc or V5 epitope tags in some assays (letters not given, left out); 35S-methionine label in the GST binding assay)
# T1 construct: also called NLRP1-myc; NLRP1-V5
# T1 sequence: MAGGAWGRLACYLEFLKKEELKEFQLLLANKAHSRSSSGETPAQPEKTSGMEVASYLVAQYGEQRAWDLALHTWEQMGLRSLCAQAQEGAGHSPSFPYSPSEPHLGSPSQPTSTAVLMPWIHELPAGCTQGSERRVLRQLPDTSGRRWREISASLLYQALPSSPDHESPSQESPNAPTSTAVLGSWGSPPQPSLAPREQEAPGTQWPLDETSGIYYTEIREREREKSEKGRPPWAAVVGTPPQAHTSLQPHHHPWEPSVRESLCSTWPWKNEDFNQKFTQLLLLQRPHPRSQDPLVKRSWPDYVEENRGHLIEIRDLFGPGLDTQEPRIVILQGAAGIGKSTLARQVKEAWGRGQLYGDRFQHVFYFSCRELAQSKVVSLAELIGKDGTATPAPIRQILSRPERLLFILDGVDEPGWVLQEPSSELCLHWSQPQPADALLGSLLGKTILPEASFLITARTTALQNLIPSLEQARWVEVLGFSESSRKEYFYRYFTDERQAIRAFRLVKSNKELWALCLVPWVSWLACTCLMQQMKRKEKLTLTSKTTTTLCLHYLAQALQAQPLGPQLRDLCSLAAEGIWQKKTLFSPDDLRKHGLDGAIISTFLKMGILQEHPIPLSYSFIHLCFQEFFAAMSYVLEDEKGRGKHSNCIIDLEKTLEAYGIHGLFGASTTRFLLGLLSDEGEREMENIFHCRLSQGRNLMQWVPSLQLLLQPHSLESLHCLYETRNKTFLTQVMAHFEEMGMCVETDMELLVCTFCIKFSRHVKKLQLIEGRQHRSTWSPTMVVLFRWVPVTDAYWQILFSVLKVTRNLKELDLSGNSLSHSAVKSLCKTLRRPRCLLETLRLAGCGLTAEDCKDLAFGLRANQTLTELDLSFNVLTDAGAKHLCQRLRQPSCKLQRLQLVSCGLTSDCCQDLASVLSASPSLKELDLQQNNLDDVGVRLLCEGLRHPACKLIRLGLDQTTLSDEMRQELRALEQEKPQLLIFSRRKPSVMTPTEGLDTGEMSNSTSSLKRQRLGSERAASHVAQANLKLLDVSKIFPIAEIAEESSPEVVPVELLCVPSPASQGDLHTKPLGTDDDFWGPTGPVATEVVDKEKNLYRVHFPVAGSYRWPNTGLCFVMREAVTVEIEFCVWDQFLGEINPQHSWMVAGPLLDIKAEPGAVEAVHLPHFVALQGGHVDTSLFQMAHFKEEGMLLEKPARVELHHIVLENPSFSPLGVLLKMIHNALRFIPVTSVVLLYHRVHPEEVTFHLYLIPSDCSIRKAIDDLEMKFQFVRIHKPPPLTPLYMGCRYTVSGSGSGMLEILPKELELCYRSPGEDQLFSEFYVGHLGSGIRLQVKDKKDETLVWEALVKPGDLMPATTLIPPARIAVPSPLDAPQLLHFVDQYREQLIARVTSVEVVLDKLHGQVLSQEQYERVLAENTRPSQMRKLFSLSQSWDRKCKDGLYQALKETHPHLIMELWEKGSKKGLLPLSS
# T2: NLRP1 (Homo sapiens, UniProt Q9C000)
# T2 construct: host or cells: cell-free coupled transcription/translation
# T2 sequence (Q9C000 1-1473): T1 sequence
# B1: GST-Orf63 (other)
# chain: MDGTDALEKLTKGLSGGGGSLHQTKLLMEFQLRGLPVPALLNSSTTEQFLNTVAQLPTDLSKFIRDYRVFALVRAAYFLEPPSSIDPLEAARALGRLVDILSSQPPQNTAPAQPPTSDDTLNNCTLLKLLAHYADQIAGFKTPALPPVPPGIIGLFTCVEQMYHACFQKYWAAALPPMWILTYDPPTSPLQDWLIVAYGNKEGLLLPSGIPSEEVLAKTLVTEHHELFVSRSNSTETAVTMPVSKERALAIYRVFAKGEVVAENTPILAFTDVELSTLKPHYLFIYDFIIEALCKSYTYSCTQARLESFLSRGIDFMTDLGQYLDTATSGKQQLTHSQIKEIKYRLLSCGLSASACDVFRTVIMTLPYRPTPNLANLSTFMGMVHQLTMFGHYFYRCLGSYSPTGLAFTELQKILTRASAEQTERNPWRHPGISDIPLRWKISRALAFFVPPAPINTLQRVYAALPSQLMRAIFEISVKTTWGGAVPANLARDIDTGPNTQHISSTPPPTLKDVETYCQGLRVGDTEYDEDIVRSPLFADAFTKSHLLPILREVLENRLQKNRALFQIRWLIIFAAEAATGLIPARRPLARAYFHIMDILEERHSQDALYNLLDCIQELFTHIRQAVPDAQCPHAFLQSLFVFQFRPFVLKHQQGVTLFLDGLQTSLPPVISLANLGDKLCRLEFEYDSEGDFVRVPVAPPEQPPHVHLSHFKKTIQTIEQATREATVAMTTIAKPIYPAYIRLLQRLEYLNRLNHHILRIPFPQDALSELQETYLAAFARLTKLAADAANTCSYSLTKYFGVLFQHQLVPTAIVKKLLHFDEAKDTTEAFLQSLAQPVVQGQRQGAAGGSGVLTQKELELLNKINPQFTDAQANIPPSIKRSYSNKYDVPEVSVDWETYSRSAFEAPDDELRFVPLTLAGLRKLFVE
# modifications: N-terminal GST fusion and C-terminal FLAG tag are not carried by the letters
# notes: also called GST-tagged Orf63; purified GST-Orf63 protein; not shown: N-terminal GST of the pGex5p-1 vector with its protease-site linker; C-terminal FLAG tag
# B2: GST-Orf63: purified GST-tagged Orf63 fusion protein (protein)
# chain: B1 chain
# modifications: left off: a dimerising Fc or GST; small tags and cut ends
# notes: purified GST-tagged Orf63 fusion protein
# How the values were obtained:
# [1] = target: T1, human NLRP1 (full-length); test: GST binding assay on glutathione beads with in vitro translated 35S-labeled protein, phosphorimager
# NLRP3 = target: T3, NLRP3 (Homo sapiens, UniProt Q96P20); test: GST binding assay with 35S-methionine-labeled NLRP3; details: purified GST-Orf63 on glutathione beads
# T3 construct: primers designed to the open reading frames of procaspase-1, pro-IL-1beta, NOD1, NOD2, and NLRP3; expressed in transfected cells; host or cells: 293T
# T3 sequence (Q96P20 whole entry): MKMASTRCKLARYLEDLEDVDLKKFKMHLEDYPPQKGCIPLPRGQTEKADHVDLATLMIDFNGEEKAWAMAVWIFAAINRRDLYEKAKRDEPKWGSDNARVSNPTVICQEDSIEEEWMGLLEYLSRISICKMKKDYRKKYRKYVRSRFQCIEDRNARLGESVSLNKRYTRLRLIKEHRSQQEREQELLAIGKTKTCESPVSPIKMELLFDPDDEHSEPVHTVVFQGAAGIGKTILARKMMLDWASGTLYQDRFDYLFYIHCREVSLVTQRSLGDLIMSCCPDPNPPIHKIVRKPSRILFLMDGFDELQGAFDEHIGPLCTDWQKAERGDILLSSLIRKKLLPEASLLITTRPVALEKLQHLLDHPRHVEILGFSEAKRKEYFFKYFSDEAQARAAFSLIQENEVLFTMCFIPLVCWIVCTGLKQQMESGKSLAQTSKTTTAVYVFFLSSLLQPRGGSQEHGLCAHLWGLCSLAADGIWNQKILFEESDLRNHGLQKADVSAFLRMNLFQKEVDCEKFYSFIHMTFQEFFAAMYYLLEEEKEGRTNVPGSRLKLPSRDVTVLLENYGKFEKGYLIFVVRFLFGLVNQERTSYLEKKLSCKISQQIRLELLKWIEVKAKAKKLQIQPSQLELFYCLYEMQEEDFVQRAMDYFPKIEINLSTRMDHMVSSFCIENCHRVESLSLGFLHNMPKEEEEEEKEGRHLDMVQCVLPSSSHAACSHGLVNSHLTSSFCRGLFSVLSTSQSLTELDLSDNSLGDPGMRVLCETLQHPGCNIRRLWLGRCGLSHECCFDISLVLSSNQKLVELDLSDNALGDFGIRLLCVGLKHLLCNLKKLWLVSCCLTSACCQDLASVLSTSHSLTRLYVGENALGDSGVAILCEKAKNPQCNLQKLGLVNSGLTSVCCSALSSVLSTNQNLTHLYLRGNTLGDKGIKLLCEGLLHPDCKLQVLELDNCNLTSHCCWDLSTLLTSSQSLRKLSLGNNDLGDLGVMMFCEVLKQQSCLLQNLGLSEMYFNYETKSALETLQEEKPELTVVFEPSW
# Protocol: (§1) In-vitro transcription/translation: [^35S]-methionine (Perkin-Elmer) labeled NLRP1, NLRP3 and control luciferase proteins were prepared using TnT T7 Quick Coupled Transcription/Translation System (Promega) according to manufacturer's instructions. pcDNA3-NLRP1 and pcDNA3-NLRP3 plasmids were used for the transcription/translation reaction.
# (§2) GST binding Assay: Expression and purification of GST fusion proteins were performed as previously described (29) and equal amounts of GST and GST-Orf63 were bound to glutathione beads (29). Equivalent amounts (1×10^5 cpm) of ^35S-methionine labeled NLRP1, NLRP3 and luciferase proteins were incubated with the GST and GST-Orf63 bound protein in NETN+ buffer plus protease inhibitors for an hour at 4° C. NETN+ buffer comprised of 20 mM Tris (pH 7.5), 100 mM NaCl, 1 mM EDTA, 0.1% NP-40, 1 mM DTT. The bound complexes were washed five times (5 minute washes) in NETN+ buffer. The samples were subjected to SDS-PAGE. The gel was fixed, dried and exposed to a phosphoimager.
# NLRP1 = target: T2, NLRP1; test: GST binding assay with 35S-methionine-labeled NLRP1; details: purified GST-Orf63 on glutathione beads
# Protocol: as §1, §2
Molecule,binding result [1],binding of 35S-methionine-labeled NLRP3 (NLRP3),binding of 35S-methionine-labeled NLRP1 (NLRP1)
B1,binds,–,–
B2,–,bound,bound
